Experimental data reported in US20250270301A1 (GEN2 NEUROSCIENCE, published 2025).
Residue numbers refer to the chain shown, from its start. Read-outs that look alike come from different tables or passages of the source. Blank lines part the entries; values can stand above or below the binder they belong to.

Tests used:
[1] = molecular target: T1, full length recombinant human 2N4R tau (human, UniProt P10636 1-758); experiment: ELISA, tau coated on the plate
T1 construct: bought from rPeptide; pHrodo Red maleimide-labelled where it stands in uptake assays; also called tau1-441; full length tau
Protocol: ELISA plates were coated with antigen (non-conjugated antigen peptide (Antigen peptide ([C]-[…]-amide (SEQ ID NO: 13)) or full length 2N4R tau (SEQ ID NO: 2), 100 ng/well; or 1% BSA in 1×TBS) in 1× carbonate-bicarbonate buffer for 1 hour at 37° C. Antigen was removed from wells and the plates were then blocked for 1 hour at RT with 5% dried milk in 1×TBS. Blocking solution was removed, HEK293F cell supernatant (10 μg/mL, to 0.0001 μg/mL in 1% BSA/1×TBS) was added to relevant wells, and plates were incubated for 1 hour at RT with gentle shaking. Plates were then washed four times with TBS/0.1% Tween (TBST). Anti-rabbit IgG-HRP antibody (Sigma, St Louis, MO, USA), diluted 1:5000 in 5% milk/TBS, was added to each well and plates were incubated for 1 hour at RT with gentle shaking before being washed four times with TBST. 3,3′,5,5′-tetramethylbenzidine (TMB) ELISA solution was added to each well and plates were incubated for 15 mins at RT. An equal volume of 1 M sulfuric acid was added to each well and OD was measured at 450 nm.

[2] = molecular target: T1, full length recombinant human 2N4R tau; experiment: SPR MCK, IgG on Protein A, tau in flow
Protocol: Anti-tau IgGs bind to full length 2N4R tau (SEQ ID NO: 2) with high affinity. […] It is predicted that the binding affinity of these antibodies would be equivalent to any tau species containing the epitope corresponding to amino acids 369-381 of 2N4R tau (SEQ ID NO: 1), if this sequence is accessible.
19.2 Assessment of antibody binding to tau: Binding of anti-tau hIgG1 to full length recombinant 2N4R tau (Rpeptide; SEQ ID NO: 2) was assessed using the Biacore T200 (GE Healthcare, Chicago, IL, USA) running Biacore T200 Evaluation Software V2.0.1. hIgG1 were immobilised on a Protein A capture sensor chip in running buffer (HBS-EP+ buffer containing 1 mg/mL BSA) at 25° C., captured to ˜50 RU at 10 μL/min. For multi-cycle kinetics experiments (clone #66), recombinant 2N4R tau was flowed at concentrations ranging from 0.39 nM to 50 nM in running buffer at 40 μL/min, with an association time of 150 s and a dissociation time of 250 s. Optimised conditions for multiple-cycle kinetics experiments were applied to clone #44: recombinant 2N4R tau was flowed at concentrations ranging from 0.39 nM to 12.5 nM (2-fold dilutions) with an association time of 60 s and a dissociation time of 200 s (cropped to 65 s to improve analysis fit). Curves were compared to a reference cell that was mock immobilized (no antibody present).

[3] = molecular target: aggregated (oligomeric) P301S 2N4R tau, pHrodo-labelled (human, UniProt P10636 1-758, pHrodo Red maleimide label); experiment: cell-based or functional assay
[4] = molecular target: monomeric P301S 2N4R tau, pHrodo-labelled (human, UniProt P10636 1-758, pHrodo Red maleimide label); experiment: cell-based or functional assay
[5] = molecular target: T1, full length recombinant human 2N4R tau; experiment: SPR SCK, IgG on Protein A, tau in flow
[6] = molecular target: T1, full length recombinant human 2N4R tau; experiment: SPR SCK, IgG on Protein A, tau in flow; remark: listed apart in the source
Protocol: 21.5 Assessment of antibody binding to tau (Biacore SCK analysis): Binding of anti-tau hIgG1 to full length recombinant 2N4R tau (Rpeptide; SEQ ID NO: 2) was assessed using the Biacore T200 (GE Healthcare, Chicago, IL, USA) running Biacore T200 Evaluation Software V2.0.1. hIgG1 were immobilised on a Protein A capture sensor chip in running buffer (HBS-EP+ buffer containing 1 mg/mL BSA) at 25° C., captured to ˜50 RU at 10 μL/min. For single-cycle kinetics experiments, recombinant 2N4R tau was flowed at concentrations ranging from 1.25 nM to 10 nM (2-fold dilutions) with an association time of 60 s and a dissociation time of 200 s. Curves were compared to a reference cell that was mock immobilized (no antibody present).

Bovine serum albumin [7] = molecular target: T2, Bovine serum albumin (bovine, UniProt P02769 25-607); experiment: ELISA on 1% BSA, HEK supernatant, anti-human IgG-HRP, n=1
T2 construct: also called BSA
Protocol: FIG. 7. A panel of humanised anti-tau IgG bind to full length recombinant 2N4R tau in an ELISA format. Supernatants from HEK cells transiently transfected with each IgG clone were tested at 1:100 for binding to full length recombinant 2N4R tau (solid bars). […] Binding of anti-tau hIgG1 was detected using an HRP-conjugated anti-human secondary antibody and data are shown from a representative experiment (n=1 replicate).
Antigen was removed from wells and the plates were then blocked for 1 hour at RT with 5% dried milk in 1×TBS. Blocking solution was removed, HEK293 cell supernatant (1:100 in 1% BSA/1×TBS) was added to relevant wells, and plates were incubated for 1 hour at RT with gentle shaking. Plates were then washed four times with TBS/0.1% Tween (TBST). Goat anti-human IgG-HRP antibody (Thermo Fisher Scientific, Waltham, MA, USA), diluted 1:2000 in 5% milk/TBS, was added to each well and plates were incubated for 1 hour at RT with gentle shaking before being washed four times with TBST. 3,3′,5,5′-tetramethylbenzidine (TMB) ELISA solution was added to each well and plates were incubated for 15 mins at RT. An equal volume of 1 M sulfuric acid was added to each well and OD was measured at 450 nm.

[8] = molecular target: T1, full length recombinant human 2N4R tau; experiment: SPR MCK, IgG on Protein A, tau in flow at 100 µL/min
[9] = molecular target: T1, full length recombinant human 2N4R tau; experiment: SPR MCK, IgG on Protein A, tau in flow; remark: listed apart in the source
Protocol: Slight variations in RMAX are considered likely to be due to differences in ligand capture and not reflective of significant variation in antibody binding characteristics.
22.2 Assessment of antibody binding to tau (Biacore MCK analysis): Binding of anti-tau hIgG1 to full length recombinant 2N4R tau (Rpeptide; SEQ ID NO: 2) was assessed using the Biacore T200 (GE Healthcare, Chicago, IL, USA) running Biacore T200 Evaluation Software V2.0.1. hIgG1 were immobilised on a Protein A capture sensor chip in running buffer (HBS-EP+ buffer containing 1 mg/mL BSA) at 25° C., captured to ˜50 RU at […]. For multi-cycle kinetics experiments, recombinant 2N4R tau was flowed at concentrations ranging from 0.39 nM to 12.5 nM in running buffer at 40 μL/min, with an association time of 60 s and a dissociation time of 200 s. Curves were compared to a reference cell that was mock immobilized (no antibody present).

Bovine serum albumin [10] = molecular target: T2, Bovine serum albumin; experiment: ELISA on 1% BSA, HEK supernatant, anti-human IgG-HRP, n=1; remark: listed apart in the source

T1 sequence (P10636 other isoform, or with tags, fused parts or gaps limits assumed): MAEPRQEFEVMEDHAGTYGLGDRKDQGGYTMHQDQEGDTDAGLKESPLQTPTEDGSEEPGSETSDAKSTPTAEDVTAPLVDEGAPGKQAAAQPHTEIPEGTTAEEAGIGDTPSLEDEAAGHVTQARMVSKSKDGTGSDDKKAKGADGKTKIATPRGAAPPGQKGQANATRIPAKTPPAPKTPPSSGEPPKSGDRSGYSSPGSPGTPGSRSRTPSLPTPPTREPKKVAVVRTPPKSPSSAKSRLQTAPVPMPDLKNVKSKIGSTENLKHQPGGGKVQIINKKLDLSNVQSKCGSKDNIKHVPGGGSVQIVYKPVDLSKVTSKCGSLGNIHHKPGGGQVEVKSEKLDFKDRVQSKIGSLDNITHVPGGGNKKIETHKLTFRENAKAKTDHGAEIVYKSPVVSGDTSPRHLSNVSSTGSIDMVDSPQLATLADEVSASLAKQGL
T2 sequence (P02769 25-607 limits assumed): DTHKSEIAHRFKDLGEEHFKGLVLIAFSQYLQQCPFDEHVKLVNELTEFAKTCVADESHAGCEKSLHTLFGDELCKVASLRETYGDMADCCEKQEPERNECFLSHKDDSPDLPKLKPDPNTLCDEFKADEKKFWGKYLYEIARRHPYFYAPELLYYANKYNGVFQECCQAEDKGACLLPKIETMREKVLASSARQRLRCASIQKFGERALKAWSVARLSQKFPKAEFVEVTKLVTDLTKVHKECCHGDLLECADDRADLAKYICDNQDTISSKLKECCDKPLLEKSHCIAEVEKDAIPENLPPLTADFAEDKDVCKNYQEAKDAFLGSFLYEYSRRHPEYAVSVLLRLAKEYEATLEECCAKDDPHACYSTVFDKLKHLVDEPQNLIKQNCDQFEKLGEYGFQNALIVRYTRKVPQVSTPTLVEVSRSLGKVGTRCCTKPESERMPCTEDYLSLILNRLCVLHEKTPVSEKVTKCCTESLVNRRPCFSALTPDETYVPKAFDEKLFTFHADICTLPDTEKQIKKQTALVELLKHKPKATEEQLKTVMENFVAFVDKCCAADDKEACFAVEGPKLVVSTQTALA
monomeric P301S 2N4R tau, pHrodo-labelled, sequence (P10636 other isoform, or with tags, fused parts or gaps P301S P301S): as the sequence (P10636 other isoform, or with tags, fused parts or gaps limits assumed) above, with P301S counted along it
aggregated (oligomeric) P301S 2N4R tau, pHrodo-labelled, sequence (P10636 other isoform, or with tags, fused parts or gaps P301S P301S): as the sequence (P10636 other isoform, or with tags, fused parts or gaps limits assumed) above, with P301S counted along it

B3: #44_VH4VK4 humanised hIgG1 (antibody, V domains shown)
VH: QVQLQESGPGLVKPSETLSLTCTVSGIDLSSYAMAWVRQAPGKGLEWIGCIDRRGGTFYASWVKGRFTISKDTSKTTVDLQMTSLTAEDTATYFCARDSGAFDPWGQGTLVTVSS
VL: DIQMTQSPSSLSASVGDRVTITCQASQSVYDNYLAWYQQKPGQPPKLLIHAASNLASGVPSRFSGSGSGTEFTLTISSLQPDDFATYYCLGEFSCTTTDCNVFGGGTKVEIK
notes: also called VH4Vκ4; pVH/pVL
- increase of aggregated tau uptake into human iPSC-derived microglia [3]: 115%
- inhibition of aggregated tau uptake into human astrocytes [3]: 41.3%
- inhibition of aggregated tau uptake into human iPSC-derived astrocytes [3]: 61.9%
- increase of monomeric tau uptake into human iPSC-derived microglia [4]: 59.4%
- inhibition of monomeric tau uptake into human astrocytes [4]: 52.3%
- inhibition of monomeric tau uptake into human iPSC-derived astrocytes [4]: 94.1%
- Fold change (KD, to pVH/pVL) [5]: 1
- Kd [5]: 6.58 nM
- koff [5]: 0.012 s⁻¹
- kon [5]: 1.82e+06 M⁻¹ s⁻¹
- Kd [6]: 8.12 nM
- Relative KD (to VH0VK0) [6]: 2.12
- koff [6]: 0.0294 s⁻¹
- kon [6]: 3.61e+06 M⁻¹ s⁻¹
- binding result (Bovine serum albumin [7]): no binding (tested: supernatant 1:100)
- Fold improvement (KD, to pVH/pVL) [8]: 1
- Kd [8]: 7.76 nM
- koff [8]: 0.0147 s⁻¹
- kon [8]: 1.89e+06 M⁻¹ s⁻¹
- Kd [9]: 5.84 nM
- Relative KD (to VH0VK0) [9]: 1.8
- koff [9]: 0.0316 s⁻¹
- kon [9]: 5.41e+06 M⁻¹ s⁻¹

B5: #44_VH4VK4_H01/pVL (antibody, V domains shown)
VH: B3 VH with S99V, A101S, P104V
VL: B3 VL
notes: also called Clone VH4_H01; #44_VH4_H01
- inhibition of aggregated tau uptake into human astrocytes [3]: 38.6%
- inhibition of aggregated tau uptake into human iPSC-derived neurons [3]: 61.1%
- inhibition of monomeric tau uptake into human astrocytes [4]: 67.5%
- inhibition of monomeric tau uptake into human iPSC-derived neurons [4]: 89.2%
- Fold change (KD, to pVH/pVL) [5]: 2.43
- Kd [5]: 2.71 nM
- koff [5]: 0.00805 s⁻¹
- kon [5]: 2.97e+06 M⁻¹ s⁻¹
- binding result (Bovine serum albumin [10]): no binding (tested: 30 ng/ml (legend 1:100))
- Fold improvement (KD, to pVH/pVL) [8]: 1.9
- Kd [8]: 4.01 nM
- koff [8]: 0.00957 s⁻¹
- kon [8]: 2.39e+06 M⁻¹ s⁻¹

B6: #44 VH0VK0 chimeric human IgG1 (antibody, V domains shown)
VH: QSVEESGGRLVTPGTPLTLTCTVSGIDLSSYAMAWVRQAPGKGLEWIGCIDRRGGTFYASWVKGRFTISKTSTTVDLKMTSLTTEDTATYFCARDSGAFDPWGPGTLVTVSS
VL: QIVMTQTPSSVSAAVGGTVTIKCQASQSVYDNYLAWYQQKPGQPPKLLIHAASNLASRVPSRFKGSGSGTQFTLTISDVQCDDAATYYCLGEFSCTTTDCNVFGGGTEVVVK
notes: rabbit VH and VK on human IgG1; also called VH0Vκ0; Clone #44 hIgG1
- Kd [2]: 4.68 nM
- koff [2]: 0.00968 s⁻¹
- kon [2]: 2.07e+06 M⁻¹ s⁻¹
- Kd [6]: 3.83 nM
- Relative KD (to VH0VK0) [6]: 1
- koff [6]: 0.0126 s⁻¹
- kon [6]: 3.28e+06 M⁻¹ s⁻¹
- Kd [9]: 3.25 nM
- Relative KD (to VH0VK0) [9]: 1
- koff [9]: 0.0107 s⁻¹
- kon [9]: 3.3e+06 M⁻¹ s⁻¹

More lines, main results first:

- EC50 [1]: 0.82 nM
B1: Clone 1 (#66) rabbit monoclonal IgG (antibody, V domains shown)
VH: QSVEESGGRLVTPGTPLTLTCTVSGIDLSSNAMIWVRQAPGKGLEYIGNIGTHGTTYYASWAKGRFTISKTSTTVDLKMTSPTTEDTATYFCSRGDIWGPGTLVTVSL
VL: AQVLTQTESPVSAPLRGTVTINCQASQSVDDNNNLAWYQQKPGQPPKLLIYEASTLASGVSSRFKGSGSGTQFTLTISDVQCDDAATYYCLGEFSCSSADCVVFGGGTEVVVKG
notes: rabbit IgG; also called clone #66; B9

- Kd [2]: 2.39 nM
- koff [2]: 0.00478 s⁻¹
- kon [2]: 2.01e+06 M⁻¹ s⁻¹
B2: Clone #66 (Clone 1) chimeric human IgG1 (antibody, V domains shown)
VH: B1 VH
VL: B1 VL
notes: rabbit VH and VK on human IgG1; also called #66 hIgG1

- inhibition of aggregated tau uptake into human astrocytes [3]: 43.3%
- inhibition of aggregated tau uptake into human iPSC-derived neurons [3]: 59.2%
- inhibition of monomeric tau uptake into human astrocytes [4]: 64.7%
- inhibition of monomeric tau uptake into human iPSC-derived neurons [4]: 84.1%
- Fold change (KD, to pVH/pVL) [5]: 5.62
- Kd [5]: 1.17 nM
- koff [5]: 0.00324 s⁻¹
- kon [5]: 2.78e+06 M⁻¹ s⁻¹
- Fold improvement (KD, to pVH/pVL) [8]: 5.1
- Kd [8]: 1.52 nM
- koff [8]: 0.0037 s⁻¹
- kon [8]: 2.43e+06 M⁻¹ s⁻¹
B4: #44_VH4VK4_H02/pVL (antibody, V domains shown)
VH: B3 VH with S99R, A101D, P104V
VL: B3 VL
notes: also called Clone VH4_H02; #44_VH4_H02
- binding result (Bovine serum albumin [10]): no binding (tested: 30 ng/ml (legend 1:100))

- EC50 [1]: 1.05 nM
B7: Clone 2 (#44) rabbit monoclonal IgG (antibody, V domains shown)
VH: B6 VH
VL: QIVMTQTPSSVSAAVGGTVTIKCQASQSVYDNYLAWYQQKPGQPPKLLIHAASNLASRVPSRFKGSGSGTQFTLTISDVQCDDAATYYCLGEFSCTTTDCNVFGGGTEVVVKG
notes: rabbit IgG; also called clone #44; D6
